# Assay results taken from the RNAGym collection of RNA variant scans (doi:10.7554/elife.80360).
# B1: CPEB3 Ribozyme (parent)
# chain: GGGGGCCACAGCAGAAGCGUUCACGUCGCGGCCCCUGUCAGAUUCUGGUGAAUCUGCGAAUUCUGCUGU
# Variants of: B1
# Assay: self-cleavage, relative activity (ratio to wild type); higher = more cleavage; co-transcriptional
row,Variant,self-cleavage
1,C24G G65A,0.26
2,A23G C63A,0.681
3,A23G C63U,0.95
4,A23G C63G,0.521
5,A23U C24A,0.888
6,C24A G37C,0.264
7,C24A G37A,0.229
8,C24A G47A,0.771
9,A23U A52G,0.642
10,A23U A52C,1.04
11,A23U A52U,0.996
12,A23G G48C,0.975
13,A23G G48U,0.972
14,C24G C45U,0.464
15,C24G C45G,0.436
16,C24G C45A,0.485
17,A23U G25U,0.144
18,A23U G25A,0.214
19,A23U G25C,0.185
20,A23U C29A,0.8
21,A23U C29G,0.569
22,A23U C29U,0.437
23,A23G U46C,0.906
24,A23G G30A,0.79

row,Variant,self-cleavage
1,A23G G30U,0.229
2,A23G G30C,0.432
3,A23U A60C,0.385
4,A23U A60G,0.642
5,A23U A60U,0.66
6,A23U G48U,1.01
7,A23U G48A,0.984
8,A23G G56C,0.751
9,A23G G56U,0.914
10,A23G G31C,0.237
11,A23G U55C,0.789
12,A23G U55A,0.879
13,A23G U55G,0.752
14,C24A A60C,0.283
15,C24A A60U,0.252
16,C24A A60G,0.35
17,A23U U36G,0.35
18,A23U U36A,0.222
19,A23U U36C,0.996
20,A23U G50A,1.01
21,A23U G50C,0.978
22,A23U G50U,0.958
23,C24A C39U,0.493
24,C24A C39A,0.349

row,Variant,self-cleavage
1,C24A C39G,0.682
2,A23U G30A,0.96
3,A23U G30C,0.786
4,A23U G30U,0.547
5,A23U C33G,0.773
6,A23U C33A,0.876
7,C24G G28A,0.14
8,C24A U62C,0.402
9,C24A U62A,0.364
10,C24G C54A,0.267
11,C24G C54G,0.351
12,C24G C35G,0.116
13,C24G C35U,0.261
14,A23G U36C,0.891
15,A23G U36G,0.227
16,A23G U36A,0.241
17,A23U U61A,0.918
18,A23U U61G,0.881
19,C24A U67G,0.693
20,C24A U67A,0.751
21,C24A C29G,0.166
22,C24A C29U,0.158
23,C24A C29A,0.27
24,C24A G41C,0.299

row,Variant,self-cleavage
1,C24A G41U,0.456
2,C24A G41A,0.391
3,C24A A59U,0.267
4,C24A A59G,0.731
5,A23U U26A,0.914
6,A23U U26G,0.92
7,A23U U26C,1.04
8,C24A U43A,0.537
9,C24A U43G,0.427
10,A23U C66U,0.964
11,A23U C66G,0.848
12,C24G C63A,0.237
13,C24G C63G,0.199
14,C24G C63U,0.339
15,C24A U64A,0.492
16,A23U,1
17,A23G U44A,0.923
18,A23G U44C,0.904
19,A23G U44G,1.02
20,A23U U55C,0.953
21,A23G C66U,0.964
22,A23G C66G,0.594
23,A23G C66A,0.597
24,C24G G25A,0.22

row,Variant,self-cleavage
1,C24G G25C,0.152
2,C24A C45U,0.751
3,C24A C45A,0.712
4,C24A C45G,0.677
5,C24A C66A,0.397
6,C24A C66U,0.651
7,C24A C66G,0.493
8,C24G A42G,0.404
9,C24G A42U,0.418
10,C24G C32U,0.435
11,C24G C32G,0.239
12,A23U U46C,0.964
13,A23U U46G,1
14,A23U U46A,0.955
15,A23G G58C,0.97
16,C24G C29A,0.184
17,A23U U62A,0.635
18,C24A C33G,0.33
19,C24A C33U,0.761
20,C24A C33A,0.38
21,A23G G25U,0.177
22,A23G G25A,0.156
23,C24A G30A,0.217
24,C24A G30U,0.159

row,Variant,self-cleavage
1,C24A U44C,0.628
2,C24A U44G,0.615
3,C24A U44A,0.705
4,C24A U26A,0.257
5,C24A U26G,0.283
6,C24A U49A,0.815
7,A23G U38G,0.245
8,A23G U38A,0.897
9,A23G U38C,0.946
10,C24A G48U,0.737
11,C24A G48A,0.758
12,C24A G48C,0.786
13,C24A G58A,0.4
14,C24A G58U,0.773
15,A23U A40C,0.678
16,A23U A40U,0.924
17,A23U A40G,0.951
18,C24G G47U,0.508
19,C24G G47A,0.491
20,C24A C57G,0.219
21,C24A C57U,0.248
22,A23G U43A,0.877
23,A23G U43G,0.721
24,A23G U43C,0.937

row,Variant,self-cleavage
1,C24G G56U,0.299
2,C24G G56A,0.22
3,A23U C57A,0.288
4,A23U C57U,0.28
5,C24A C27A,0.16
6,C24A C27G,0.105
7,C24G C66A,0.24
8,C24G C66G,0.28
9,A23U C45U,0.975
10,A23G G65A,0.752
11,A23G G65C,0.537
12,A23G G65U,0.554
13,C24G C57A,0.172
14,C24G C57G,0.13
15,C24G C57U,0.241
16,A23G G37U,0.22
17,A23G G37C,0.214
18,A23G G37A,0.254
19,A23U U67C,1
20,A23U U67G,0.979
21,A23U U67A,0.975
22,C24A A51G,0.754
23,C24A A51C,0.68
24,A23U C54A,0.901

row,Variant,self-cleavage
1,A23U C54G,0.943
2,A23U C54U,1.02
3,C24G C27G,0.192
4,C24G C27U,0.149
5,C24G C27A,0.201
6,C24G G41C,0.18
7,A23U G56A,1.01
8,A23U G56U,0.955
9,A23U G56C,0.936
10,A23U U69A,1.03
11,A23U U69C,1.07
12,A23U G68U,1.03
13,A23U G68C,1.01
14,A23U G68A,0.989
15,C24G A59U,0.225
16,C24G A59C,0.141
17,C24G A59G,0.518
18,A23U A59G,0.972
19,A23U G41U,0.868
20,A23U G41A,0.821
21,A23U G41C,0.912
22,A23G G28U,0.137
23,C24G G68U,0.699
24,C24G G68A,0.725

row,Variant,self-cleavage
1,C24A G68U,0.834
2,C24A G68A,0.87
3,C24A A40G,0.591
4,C24A A40C,0.31
5,A23G U64A,0.753
6,C24G G31A,0.185
7,C24G G31C,0.134
8,C24G A40G,0.363
9,C24G A40C,0.198
10,A23G C57G,0.332
11,A23G C57U,0.418
12,C24A G50C,0.665
13,C24A G50A,0.719
14,C24A G28C,0.129
15,C24A G28U,0.127
16,C24A G28A,0.187
17,C24A U61C,0.374
18,C24A A42G,0.53
19,A23U C34G,0.819
20,A23U C34A,0.956
21,C24A C63A,0.357
22,C24A C63U,0.699
23,C24A U46G,0.816
24,C24A U46A,0.793

row,Variant,self-cleavage
1,C24A U46C,0.754
2,A23G U53C,0.8
3,A23G U53A,0.916
4,A23G C54U,0.964
5,A23G C54A,0.712
6,A23G C54G,0.919
7,C24G A51C,0.323
8,C24G A51G,0.515
9,C24G C33U,0.38
10,C24A U38G,0.196
11,C24A U38C,0.517
12,C24A U38A,0.393
13,A23U C63U,1.01
14,A23U C63A,0.886
15,A23U C63G,0.858
16,A23U C39A,0.87
17,A23U C39U,0.921
18,A23U C39G,1.02
19,A23U G28C,0.217
20,A23U G28U,0.148
21,A23G U26A,0.773
22,C24G A52G,0.527
23,A23U C35G,0.658
24,A23U C35U,0.974

row,Variant,self-cleavage
1,C24G G50U,0.441
2,C24G G50A,0.392
3,C24G G50C,0.347
4,A23G U62G,0.75
5,A23G U62C,0.667
6,A23G U62A,0.948
7,A23U U49G,0.936
8,A23U U49A,1.03
9,A23U U49C,0.981
10,C24G C39U,0.217
11,A23U G65A,0.885
12,A23U G65C,0.698
13,A23G C45U,0.991
14,A23G C45G,0.971
15,C24A C32U,0.729
16,C24A C32A,0.31
17,A23G U61C,0.614
18,C24A C35G,0.173
19,C24G G30C,0.128
20,C24G G30A,0.308
21,C24G G30U,0.173
22,C24G,0.499
23,C24A,0.77
24,A23G U67G,0.992

row,Variant,self-cleavage
1,A23G U67C,0.925
2,A23G U67A,1.03
3,A23G G41C,0.581
4,A23G G41A,0.676
5,A23G G41U,0.798
6,A23G U69A,0.974
7,A23G U69G,1.04
8,A23G U69C,1.06
9,C24G G58C,0.248
10,C24G G58A,0.247
11,A23G G47A,0.996
12,A23G G47C,0.944
13,A23G G47U,0.991
14,A23U U64G,0.917
15,A23U U64A,0.943
16,A23U A51U,0.995
17,A23U A51C,0.995
18,C24G G48U,0.528
19,C24A G31C,0.132
20,C24A G31U,0.257
21,C24A C54U,0.854
22,C24A G25U,0.17
23,C24A G25A,0.13
24,C24A G25C,0.122

row,Variant,self-cleavage
1,C24G G37C,0.219
2,C24G G37A,0.131
3,A23U C32G,0.71
4,A23U C32U,1.01
5,C24A U53A,0.537
6,C24A U53G,0.506
7,C24A U53C,0.603
8,C24G C34G,0.184
9,C24G C34U,0.57
10,C24G C34A,0.271
11,C24A C34A,0.262
12,C24A C34G,0.227
13,C24A U55G,0.289
14,C24A G56U,0.576
15,C24A G56C,0.31
16,C24A G56A,0.52
17,A23G U49G,1.03
18,A23G U49A,0.957
19,A23G U49C,0.966
20,C24A U69A,0.825
21,C24A U69G,0.866
22,C24G A60C,0.205
23,C24G A60U,0.226
24,A23U G47U,0.983

row,Variant,self-cleavage
1,A23U G47A,1.02
2,C24A U36A,0.173
3,C24A U36G,0.205
4,C24A A52G,0.772
5,A23G C39G,0.888
6,A23G G68A,0.97
7,A23G G68U,1
8,A23G G68C,0.971
9,A23U C27U,0.29
10,A23U C27G,0.164
11,A23U C27A,0.734
12,A23U U43C,0.931
13,A23U U43A,0.954
14,A23U U53A,0.903
15,A23U U53G,0.959
16,A23U U53C,0.928
17,A23U U44A,0.963
18,A23U U44C,0.869
19,A23U U44G,0.882
20,A23U G31U,0.842
21,A23U G31C,0.215
22,A23G G50C,1.01
